In patent US20220153832A1 (PIONYR IMMUNOTHERAPEUTICS, published 2022):
Each block holds one binder with its values, some of them ahead of it.

Assays:
[1] = biological target: T1, Mouse MARCO, full length, on cells (mouse, UniProt Q60754 1-518); assay: flow cytometry, 293T cells expressing mouse MARCO
T1 construct: whole, on cells; the cell type is named under assay; also called muMARCO; MuMARCO
T1 sequence (looked up): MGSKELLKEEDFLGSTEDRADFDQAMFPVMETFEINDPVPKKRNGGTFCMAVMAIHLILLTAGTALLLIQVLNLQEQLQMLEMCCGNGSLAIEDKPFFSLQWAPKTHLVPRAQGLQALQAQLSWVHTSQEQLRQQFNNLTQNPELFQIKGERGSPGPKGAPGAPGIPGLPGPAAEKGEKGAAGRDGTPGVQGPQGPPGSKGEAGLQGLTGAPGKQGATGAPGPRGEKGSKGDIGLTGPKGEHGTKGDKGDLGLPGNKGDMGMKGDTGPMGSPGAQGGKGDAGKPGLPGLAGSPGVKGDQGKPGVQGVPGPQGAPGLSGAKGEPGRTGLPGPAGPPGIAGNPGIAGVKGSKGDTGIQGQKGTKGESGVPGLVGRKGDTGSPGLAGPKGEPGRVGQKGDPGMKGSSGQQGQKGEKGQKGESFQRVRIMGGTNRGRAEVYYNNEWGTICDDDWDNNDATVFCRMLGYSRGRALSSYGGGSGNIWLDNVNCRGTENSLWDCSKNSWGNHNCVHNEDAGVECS

[2] = biological target: T2, recombinant cynomolgus MARCO protein (cynomolgus, UniProt A0A2K5X0Z2 65-519); assay: SPR, multi cycle kinetics, cyno MARCO
T2 construct: Construct not described; also called cyno MARCO; cynoMARCO
T2 sequence: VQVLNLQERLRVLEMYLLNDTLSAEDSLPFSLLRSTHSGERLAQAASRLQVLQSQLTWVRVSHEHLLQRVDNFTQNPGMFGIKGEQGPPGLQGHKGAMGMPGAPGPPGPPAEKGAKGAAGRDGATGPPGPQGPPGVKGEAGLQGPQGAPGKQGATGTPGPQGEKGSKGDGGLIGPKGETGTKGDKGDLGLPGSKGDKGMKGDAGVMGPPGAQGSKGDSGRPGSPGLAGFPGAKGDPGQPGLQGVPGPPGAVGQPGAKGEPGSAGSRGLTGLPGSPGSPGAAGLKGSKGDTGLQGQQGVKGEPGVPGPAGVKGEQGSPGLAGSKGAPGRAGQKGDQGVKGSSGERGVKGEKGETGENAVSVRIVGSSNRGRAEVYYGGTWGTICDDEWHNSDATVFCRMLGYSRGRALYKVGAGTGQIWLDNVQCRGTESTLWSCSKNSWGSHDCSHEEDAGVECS

[3] = biological target: T3, N-terminally polyhistidine tagged human MARCO ECD (147-520), recombinant (human, UniProt Q9UEW3 147-520); assay: Biacore, recombinant human MARCO; control sample
T3 construct: also called PI-RG-3000; recombinant human MARCO; not shown: N-terminal polyhistidine tag
T3 sequence: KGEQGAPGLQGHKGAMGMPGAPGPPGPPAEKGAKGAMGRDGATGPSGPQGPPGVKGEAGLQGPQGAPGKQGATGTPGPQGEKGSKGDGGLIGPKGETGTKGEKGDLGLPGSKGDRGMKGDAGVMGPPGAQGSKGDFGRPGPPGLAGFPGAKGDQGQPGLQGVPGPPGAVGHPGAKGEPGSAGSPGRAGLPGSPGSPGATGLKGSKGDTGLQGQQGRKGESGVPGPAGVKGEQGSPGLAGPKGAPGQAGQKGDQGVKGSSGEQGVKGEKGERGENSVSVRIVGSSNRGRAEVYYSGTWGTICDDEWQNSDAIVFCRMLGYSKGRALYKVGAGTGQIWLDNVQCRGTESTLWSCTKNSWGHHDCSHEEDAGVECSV

[4] = biological target: T4, Human Macrophage Receptor with Collagenous Structure (MARCO), full length, on cells (human, UniProt Q9UEW3 1-520); assay: flow cytometry, cells overexpressing human MARCO; hu (first of hu/cyn)
T4 construct: the cell type is named under assay; also called huMARCO; HuMARCO
T4 sequence: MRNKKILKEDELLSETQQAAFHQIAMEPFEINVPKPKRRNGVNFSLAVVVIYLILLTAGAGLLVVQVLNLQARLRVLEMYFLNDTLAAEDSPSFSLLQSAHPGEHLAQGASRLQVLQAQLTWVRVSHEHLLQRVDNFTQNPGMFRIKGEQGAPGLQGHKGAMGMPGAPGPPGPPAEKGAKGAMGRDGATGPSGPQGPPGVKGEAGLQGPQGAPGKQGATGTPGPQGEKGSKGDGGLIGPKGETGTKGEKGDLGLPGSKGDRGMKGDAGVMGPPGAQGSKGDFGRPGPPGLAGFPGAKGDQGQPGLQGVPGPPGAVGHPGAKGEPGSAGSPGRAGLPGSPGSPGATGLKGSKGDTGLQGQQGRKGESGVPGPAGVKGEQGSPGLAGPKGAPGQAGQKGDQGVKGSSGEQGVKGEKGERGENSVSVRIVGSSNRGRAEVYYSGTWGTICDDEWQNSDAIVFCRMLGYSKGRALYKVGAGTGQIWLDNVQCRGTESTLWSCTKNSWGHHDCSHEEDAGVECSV

[5] = biological target: T3, N-terminally polyhistidine tagged human …; assay: Biacore (SPR), recombinant human MARCO
Procedure, shortened: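 Binding kinetics and affinity of antibodies for the N-terminally His-tagged human MARCO extracellular domain (147-520) were determined by surface plasmon resonance with multi-cycle kinetics on a Biacore T200. The antibodies were captured on a CM4 chip carrying amine-coupled anti-mouse Fc mAb (4500 RU target), and the runs were done at 25° C in 10 mM HEPES pH 7.4, 150 mM NaCl, 3 mM EDTA, 0.05% surfactant P20. The analyte was injected at 0.625–10 nM with 90 s association and 600 s dissociation, and the constants were fitted in BIAevaluation 3.1.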

[6] = biological target: T5, chimera Mouse MARCO CLD-human MARCO SRCR, on cells; assay: flow cytometry, cells overexpressing HuSRCR-mouse CLD chimera
T5 chain: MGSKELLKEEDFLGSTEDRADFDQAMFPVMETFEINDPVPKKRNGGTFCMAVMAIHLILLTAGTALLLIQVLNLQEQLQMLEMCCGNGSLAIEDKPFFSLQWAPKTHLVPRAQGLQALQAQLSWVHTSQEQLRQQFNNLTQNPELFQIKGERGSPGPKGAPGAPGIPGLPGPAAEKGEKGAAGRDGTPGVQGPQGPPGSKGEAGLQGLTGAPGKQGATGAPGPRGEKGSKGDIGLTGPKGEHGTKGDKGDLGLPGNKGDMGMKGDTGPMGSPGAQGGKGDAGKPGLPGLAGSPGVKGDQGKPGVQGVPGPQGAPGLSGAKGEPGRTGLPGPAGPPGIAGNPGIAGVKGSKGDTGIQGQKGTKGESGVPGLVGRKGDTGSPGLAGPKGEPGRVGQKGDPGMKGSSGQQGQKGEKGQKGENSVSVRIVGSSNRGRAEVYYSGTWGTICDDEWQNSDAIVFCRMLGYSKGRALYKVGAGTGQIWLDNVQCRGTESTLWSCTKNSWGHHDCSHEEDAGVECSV

binding result [1]: no binding | Kd [2]: 0.109 nM
B1: PI-HX-3031 (antibody)
heavy: QVQLKESGPGLVQPSQTLSLTCTVSGFSLTSYHVSWVRQPPGKGLEWMGAIWTGGSIAYNSLLKSRLSISRDTSKSQVFLKMNSLQTEDTATYYCARDLSDYYSSYTSFDYWGQGVMVTVSTAETTAPSVYPLAPGTALKSNSMVTLGCLVKGYFPEPVTVTWNSGALSSGVHTFPAVLQSGLYTLTSSVTVPSSTWSSQAVTCNVAHPASSTKVDKKIVPRECNPCGCTGSEVSSVFIFPPKTKDVLTITLTPKVTCVVVDISQNDPEVRFSWFIDDVEVHTAQTHAPEKQSNSTLRSVSELPIVHRDWLNGKTFKCKVNSGAFPAPIEKSISKPEGTPRGPQVYTMAPPKEEMTQSQVSITCMVKGFYPPDIYTEWKMNGQPQENYKNTPPTMDTDGSYFLYSKLNVKKETWQQGNTFTCSVLHEGLHNHHTEKSLSHSP
light: DIQMTQSPASLSTSLGETVSIECLASEGISNDLAWYQQKSGKSPQLLIYAASRLQDGVPSRFSGSGSGTRYSLKISGMQPEDEADYFCQQSYKYPLTFGSGTKLEIKRADAAPTVSIFPPSTEQLATGGASVVCLMNNFYPRDISVKWKIDGTERRDGVLDSVTDQDSKDSTYSMSSTLSLTKADYESHNLYTCEVVHKTSSSPVVKSFNRNEC
notes: Parental rat hybridoma, rat IgG2a

Kd [3]: 1.2 nM | EC50 [4]: 0.798 nM | Kd [5]: 0.51 nM | koff [5]: 0.000294 s⁻¹
B2: PI-3015-AB (antibody, human IgG1, kappa)
heavy: not shown
light: DIQMTQSPSSLSASVGDRVTITCRASEGISNDLAWYQQKPGKAPKLLIYAASRLQSGVPSRFSGSGSGTDYTLTISSMQPEDFATYYCQQSYKYPLTFGQGTKLEIKRTVAAPSVFIFPPSDEQLKSGTASVVCLLNNFYPREAKVQWKVDNALQSGNSQESVTEQDSKDSTYSLSSTLTLSKADYEKHKVYACEVTHQGLSSPVTKSFNRGEC

EC50 [6]: 0.25 nM
B3: PI-3010-AB (antibody, human IgG1, kappa)
heavy: not shown
light: DIQMTQSPASLSTSLGETVSIECLASEGISNDLAWYQQKSGKSPQLLIYAASRLQDGVPSRFSGSGSGTRYSLKISGMQPEDEADYFCQQSYKYPLTFGSGTKLEIKRTVAAPSVFIFPPSDEQLKSGTASVVCLLNNFYPREAKVQWKVDNALQSGNSQESVTEQDSKDSTYSLSSTLTLSKADYEKHKVYACEVTHQGLSSPVTKSFNRGEC
